Experimental data published in a protein production outcome set (Wang et al. 2014).

Assay: label from the status in PepcDB records

Sequence | protein production
MAANGVSSGACAVSEEEARSEAERLLADPRLHVSDRHRAFLRYIVDARFEGRSDTIKAYSIAIDVFKRPASFDPSSDPIVRIEATRLRESLQKYYAQLADEPGARLDIPRGRYVPVFVERDNPPCPEEDGELEDVGLPTEEPTQAASRPEGRNWRHAIMGGAALAAVSLTGSLAYLAASAAHLNTQKPFVALSINASQNDKAAGEAVMEDLAVSLARFGTVRLKSGASGSRVPSDAMEQSLYEINMRYAENESSVSLWWQVSDAANGEAVWTDEERRPVAAGSREEAMRDLVFAVSRRLARPAGIINTIELRRNLPSSTIGNVCVLRGEFAVEQRDAAGLEAARSCLAATIASDPTDADAMATLARVYVWIGRATGDDSYFGRGLELANRAATLSPSSPRAALAQLGVQYQLGQNEISIAAGRRGVALNPENADLLAKLSMVVFLTGHWDEGVQLARQATEIAGQPIRDASFVMILNDYRQERYAQAVFLARQVPAPDAPTTVLKLAAIARLGDRPVTQQEIAAARLQHPDLERTVTAMFSGARYDSNLRDALRAGILEAGLKMPELASNGAM | failed
MNPLDVWYNIKMNVKKQIFKGTLYAVVAGCMWGISGIFGQLFFRDYHGSPLWITSTRLTIAGIILLAMSFSRDHKRFFDVWKSKKNMPTLFLYVFGGVFSVQYFYYVAIQLSNSATATILQYTAPVFIMLYLLIFQRQVPKPKSVLFVILAMIGVFLLITDGNIKHLSISPLALVTGLLAGVAVVIYSIIPRPLLDKYGALNMTGWGMMLAGIACNIFYPVWRIDFRIEPLSIFYVLTISIVGTALAFLLLLRAFQLISPLVVSVATATEPLTSVFLSIPLFGLKLTPLELLGIVMVIVSVILLSKSEQA | failed
MPALDLIRPSVTAMRVIASVNADFARELKLPPHIRSLGLISADSDDVTYIAADEATKQAMVEVVYGRSLYAGAAHGPSPTAGEVLIMLGGPNPAEVRAGLDAMIAHIENGAAFQWANDAQDTAFLAHVVSRTGSYLSSTAGITLGDPMAYLVAPPLEATYGIDAALKSADVQLATYVPPPSETNYSAAFLTGSQAACKAACNAFTDAVLEIARNPIQRA | failed
MDSRLAMFAPCPRGLEQILADELLALGAGDIAPADGGVAFAGDARLMMAVNLHSRTASRVLLRLAHGGYHAEQDIYRLAMSVDWPRWFEVSRTIKLKADGIAARVKSLDYIGLTVKDAICDRFRQAHLGRPSVDTRHPDVRVNVFLTADEATIYLDTSGEPLFKRGWREETGEAPLRENLAAGILLLAGYDGSQPLLDPMCGSGTFLVEAADIALNRAPGRARRFGFEALSSFDSAAWEKLQQDARKAEQPASSLAIRGSDRSQAMVNIARANLERAGLAELVEVSAADVTASRPHAEHGLIVSNPPYGVRLEEQDQLAAWYPELGDWLKAHFAGWTACLFSGDLRLGKLIRLAPKRRTPLFNGSLQCRLFVINMVEGSARKQKDGDEAEIETGDEQ | failed
MGANLNSAYAAGVKIAIVMGSKSDWATMQFAADVLTTLNVPFHVEVVSAHRTPDRLFSFAEQAEANGLHVIIAGAGGAAHLPGMLAAKTLVPVLGVPVQSAALSGVDSLYSIVQMPRGIPVGTLAIGKAGAANAALLAAQILALHDTELAGRLAHWRQSQTDDVLDNPDPREEA | not failed
MEVKQGLTLFARKQDMKSVWEITGSNIDLVCIGNFCRSLKDLSSRGGTDASTNTCMLPWQYSLQKPLLGVSYLNSDGSSQSTPHGSNGLVKRGATYIVSDDLTICVKKKFDVNLDDIFEHEINIGKTHSLIRDIHCLDYGFRELSFRETTLKHQSHALCGAD | failed
MKETRGYGGDAPFCTRLNHSYTGMWAPERSAEARGNLTRPPGSGEDCGSVSVAFPITMLLTGFVGNALAMLLVSRSYRRRESKRKKSFLLCIGWLALTDLVGQLLTTPVVIVVYLSKQRWEHIDPSGRLCTFFGLTMTVFGLSSLFIASAMAVERALAIRAPHWYASHMKTRATRAVLLGVWLAVLAFALLPVLGVGQYTVQWPGTWCFISTGRGGNGTSSSHNWGNLFFASAFAFLGLLALTVTFSCNLATIKALVSRCRAKATASQSSAQWGRITTETAIQLMGIMCVLSVCWSPLLIMMLKMIFNQTSVEHCKTHTEKQKECNFFLIAVRLASLNQILDPWVYLLLRKILLRKFCQENPAVSS | failed
MLRCSHSKGVNYINFSATGKLLVSVGVDPEHTITVWRWQEGTKVASRGGHLERIFVVEFRPDSDTQFVSVGVKHMKFWTLAGSALLYKKGVIGSMEAARMQTMLSVAFGANNLTFTGAINGDVYVWKEHFLIRLVAKAHTGPVFTMYTTLRDGLIVTGGKERPTKEGGAVKLWDQEMKRCRAFQLETGQLVECVRSVCRGKGKILVGTKDGEIIEVGEKSAASNILIDGHMEGEIWGLATHPSKDMFISASNDGTARIWDLADKKLLNKVNLGHAARCAAYSPDGEMVAIGMKNGEFIILLVNSLKVWGKKRDRKSAIQDIRISPDNRFLAVGSSEHTVDFYDLTQGTSLNRIGYCKDIPSFVIQMDFSADSKYIQVSTGAYKRQVHEVPLGKQVTEAMVIEKITWASWTSVLGDEVIGIWPRNADKADVNCACVTHDGLNIVTGDDFGLVKLFDFPCTEKFAKHKRYFGHSAHVTNIRFSYDDKYVVSTGGDDCSVFVWRCL | failed
MAKVLVLNASYEPLNITHWQRAVVLLLKDKAEALENNGKLIYANFPLPSVIRLRQYIKVPYKEIPLTRRNVLERDRHTCQYCNYKGEQLTLDHVIPRSRGGGDSWENLVTACVRCNIKKGNRTPREAQMSLNYTPRRPYSSLLFEIIKHTRNDRNHEWRKYVIGILEHHHHHH | failed
ESEPYVRLTTLRQLHQVMADMNTARSLADTLQTVADGVVNGLGYELACVNLVRPDGDLVVAAFAGNSAAEALITGRVGSRVSWDRRLDMGEAWGDLRFIPHTEGWVLDEDDVPQWYTDGPEPRFEDEWHPSDRLFAPMYTPGVQGASCGELIGVLSVDRPRNGRKPGAWGREALQMYAFQAAIAISNARLRANMQRALVRLEREQQALRASEESFRQAFEYAPS | failed
QSKTATVFLHGYNGGAYSTNYLIRKAEKAGAAQKALVVHVYKNGVMAFKGYWQKSIKNPMVQVVFQDNHASQKAQIYWLHQVLVQLKAKYGVKAYNAVGHSLGANDIVNQALKYGHDKRLPTLNKIVTIGGPFDGLTGFLSTQTEATVRRLDVKPSRFTKHFSEMLKYRHNFPDNVKLLNVYGDTNTGYNNDGFVGVASARSIRYLLRGKLTQYQEAFYSGEQAAHCALNQNPSVAHKMIAFLW | failed
MVSSVLEVSHVFCCPNRVRGALSWNTGPGGLLAFGTSCSVVLYDPQKKVVITNLNGHTARVNCLQWIRTEDGSPSNELVSGGSENRVIHWELENNQVLKSVRLQGHEGPVCAVHAIYQSGPSEGEQHALIASAASDSTVRIWSKKGSEVKYLQTLSFRDGFVLSVCLAILPGTNVPVLACGDDDCRIHLYIQQDDQFQKALSLCGHEDWIRGVEWATFGRDLFLASCSQDCLIRIWRLYMKPASFETKDGSLRLKENTFTIKDGGVRTTVAVTLETVLAGHENWVNAVHWQPSFYKDGVLQQPVRLLSASMDKTMILWAPDEESGVWLEQVRVGEVGGNTLGFYDCQFGENGTMIIAHAFHGALHLWKQSTVNPRQWAPEIVISGHFDGVQDLMWDPEGEFIITTSTDQTTRLFAPWKKKDQKDRSQVTWHEIARPQIHGYNIKCLAMIDRFQFVSGADEKVLRVFSAPRNFVENFSVISRQSLSHMLCDDQDLPEGATVPALGLSNKALFQGDIASQPFEEDELISPAFGSPQVTFQPAVLNEPPTEDHLLQNTLWPEIQKLYGHGYEIVCVACNNSKTLLASACKASQKEHAAIILWSTASWKQVQSLAFHTLTVTQMTFSPDDKFLLAVSRDRTWSLWKRQDATSSEFDPFFSLFAFTNKITSVHSRIIWSCDWSPDNKYFFTGSRDKKVVVWGECKSSHNPMEHPIRPCSSILDVGSSVTAVSVCPVLNPAQRYIVAIGLESGKICIYSWNKTNQEINDWTSCVETNPSQSHSLGIRRLCWKSCSDDDDDDDDDDTEQSEEGPEWLHFASCGEDHTVKIYRVNRRAL | failed
MEKAILITFLIATTSMVYQTIGQEEEISPISPESLAYEPAAAYEYDHELLSHMTTRRIKFLQDCSDKMSSKCNVEMTEGLIDDKPVSEDCCVNFLKIGRECHEGLMTFVFATYELKDVASAILPRSKRMWNKCVETTAAKIGAPLAFET | failed
MTQPNIIMTRVDERLIHGQGQLWVKFLNCNTVIVANDAVSEDKIQQSLMKTVIPSSIAIRFFSIQKVIDIIHKASPAQSIFIVVKDLQDAKLLVEGGVPITEINIGNIHKTDDKVAITQFISLGETDKSAIRCLAHDHHVVFNTKTTPAGNSASDVDILDYI | not failed
VYRRILLTVDEDDNTSSERAFRYATTLAHDYDVPLGICSVLESEDINIFDSLTPSKIQAKRKHVEDVVAEYVQLAEQRGVNQVEPLVYEGGDVDDVILEQVIPEFKPDLLVTGADTEFPHSKIAGAIGPRLARKAPISVIVVR | failed
MISVVGAGGKTSLLFWLAELLQASGRRVLITTTTHMFMPTSHWPVVFCRDPAMLPHASLTSPISFCFHSWKANQGKVQGFTPEAIDALVQRPECDVILIEADGSRGMPLKAPDEHEPCIPKSSCCVIAVMGGHTLGAKVSTENVHRWSQFADITGLTPDATLQLSDLVALVRHPQGAFKNVPQGCRRVWFINRFSQCENAIAQSELLQPLQQHDVEAIWLGDIQEHPAIARRFVNLEHHHHHH | not failed
MLDDLDLFVAIVDAGSLSAAAKRMAMPAATLTRRLQALEAELGCKLLNRSARRLVPTNEGWQYYEQCKPLLAALRQAADSLDATLNRVEGVVRAMAPVSMANSLLLPVWQRLLQRHPAVRLELVLSNGTEDVWAMGGDLAIRVGPQPDSQLNQRKLGQVSAVLAAAPSYLEARGRPQAFEQLAGHDLLLTTPLQNWKLHRVDGDEERSLPDGARLLVNDMLLGVRMAEAGCGVVLCPLSQCHRELADGRLERILQDWWIPPRPVYAVWPQRRAMPARVRALLDILLEFAAEEPLLRS | failed
MTRTFDTPLPIDDALDELTAALEASNTAVLVAPPGAGKTTRVPLALLDAPWLRNQKIIVLEPRRIAARASAERMAKTLSEKAGERIGYRVRFGSKVSRATRIEVVTEGIFTRQILDDPELNGVAAVLFDEFHERSLDADLGLALARDAQQGLREDLRILVMSATIDGARVARLLGDAPVVESLGRAFPVETRYLGRRSDAPLERQMAEAIAQALRAETGSVLAFLPGAAEIRRTETMLRERVQDPAVEIVPLFGALDAAVQDRAIQPAPKGQRKVVLATSIAETSLTIEGVRIVVDCGLSRVPRYEPDLGLTRLETVRASRAAVDQRRGRAGRIEPGVCYRLWDEPQTASLPAYTQPEILSADLSSLLLDLAQWGVADPSSLAFLDPPPQPALKEARELLGELGALDPDGRITDEGRSLRAMALPPRLARMIVDAARHDCAKDAAEVAAILTERGLGGDSADLDNRRDQFRRDRSQRASSARQMAQRWATQAASSSPSPQDAGELSSGVLLAFAFPDRVAKNRGNGSFTLANGRGAAVEQTSALARAPYLAVGELTGSAAQGRILLAAPIALSEIELHFGDQITDADEVSFDRSAMALRARRRRALHAITLSEAPLALTPSEQTARVLAEGLVVAGLDRLPWSKQLQQWRGRVMFLRKAEGDPWPDLSDAALAETRENWLVPALFDKTGLKDFSASDLSDALMNLLPWELRARLDREAPTHFEAPTGSKLPIDYEAEQGPTIAVRLQELFGLTTHPSVAGGAVPLVLELLSPAHRPVQVTRDLPGFWRGSYAGVRADLRGRYPRHPWPEDPASAPPTRRAKPKGT | failed
ARTYRGVELIPVENIYYFLADQKYVTVRHKNGSVLIDETLKELELEFQNRFIRIHRNALVSVDYLDGLEVISSGQYQVRCREVNERLAVSRRHLPYLRDRMQKM | failed
MAEPLQPDPGAAEDAAAQAVETPGWKAPEDAGPQPGSYEIRHYGPAKWVSTSVESMDWDSAIQTGFTKLNSYIQGKNEKEMKIKMTAPVTSYVEPGSGPFSESTITISLYIPSEQQFDPPRPLESDVFIEDRAEMTVFVRSFDGFSSAQKNQEQLLTLASILREDGKVFDEKVYYTAGYNSPVKLLNRNNEVWLIQKNEPTKENE | failed
